Data: patent US20140242068A1 (EMORY UNIVERSITY, published 2014)
Each block holds one binder with its values, some of them ahead of it.

How the values were obtained:
BSA = BSA (UniProt P02769 25-607); assay: ELISA, antigen coated at 5 µg/ml
JAMA-GST = biological target: T1, JAMA-GST (UniProt Q9Y624 28-238, limits assumed); assay: ELISA, antigen coated at 5 µg/ml
T1 construct: Construct not described; not shown: GST tag
T1 sequence (looked up): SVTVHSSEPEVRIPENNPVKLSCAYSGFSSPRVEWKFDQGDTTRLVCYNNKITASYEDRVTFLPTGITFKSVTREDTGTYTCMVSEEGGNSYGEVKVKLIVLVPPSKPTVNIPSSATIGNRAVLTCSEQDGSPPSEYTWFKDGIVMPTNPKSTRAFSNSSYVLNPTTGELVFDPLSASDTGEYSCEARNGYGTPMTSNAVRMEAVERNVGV

[1] = biological target: T2, purified extracellular domain of CAR tagged with GST (CAR-GST) (UniProt P78310 20-237, limits assumed); assay: ELISA, antigen coated at 5 µg/ml
T2 construct: extracellular domain; also called soluble CAR; sCAR; not shown: GST tag
T2 sequence (looked up): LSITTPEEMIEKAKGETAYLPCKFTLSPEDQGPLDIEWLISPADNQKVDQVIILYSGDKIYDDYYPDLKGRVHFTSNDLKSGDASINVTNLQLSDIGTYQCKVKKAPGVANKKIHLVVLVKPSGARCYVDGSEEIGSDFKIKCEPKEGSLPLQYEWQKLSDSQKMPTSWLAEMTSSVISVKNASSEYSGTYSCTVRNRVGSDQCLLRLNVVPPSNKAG

JAMA-Fc = biological target: T3, JAMA-Fc (UniProt Q9Y624 28-238, limits assumed); assay: ELISA, antigen coated at 5 µg/ml
T3 construct: the construct is not described; not shown: Fc tag
T3 sequence (looked up): T1 sequence (looked up)

JAMC_Fc = biological target: T4, JAMC_Fc (UniProt Q9BX67 32-241, limits assumed); assay: ELISA, antigen coated at 5 µg/ml
T4 construct: Construct not described; not shown: Fc tag
T4 sequence (looked up): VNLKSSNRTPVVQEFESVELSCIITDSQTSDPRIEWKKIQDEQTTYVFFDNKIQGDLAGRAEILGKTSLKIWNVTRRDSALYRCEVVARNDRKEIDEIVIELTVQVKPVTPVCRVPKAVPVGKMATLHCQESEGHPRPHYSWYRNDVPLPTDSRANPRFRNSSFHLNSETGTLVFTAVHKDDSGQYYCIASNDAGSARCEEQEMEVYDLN

CLMP-Fc = biological target: T5, CLMP-Fc (UniProt Q9H6B4 19-235, limits assumed); assay: ELISA, antigen coated at 5 µg/ml
T5 construct: Construct not described; also called CAR-like membrane protein; not shown: Fc tag
T5 sequence (looked up): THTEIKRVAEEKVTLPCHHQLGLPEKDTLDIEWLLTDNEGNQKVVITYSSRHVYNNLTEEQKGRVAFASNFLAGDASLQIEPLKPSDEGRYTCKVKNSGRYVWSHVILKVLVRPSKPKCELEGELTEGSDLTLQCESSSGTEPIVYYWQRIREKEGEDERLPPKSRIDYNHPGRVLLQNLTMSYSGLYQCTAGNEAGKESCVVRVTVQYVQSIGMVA

SIRPA-HIS = biological target: T6, SIRPA-HIS (UniProt P78324 31-370, limits assumed); assay: ELISA, antigen coated at 5 µg/ml
T6 construct: Construct not described; not shown: His tag

EVA-His = biological target: T7, EVA-His (UniProt O60487 27-154, limits assumed); assay: ELISA, antigen coated at 5 µg/ml
T7 construct: Construct not described; also called EVA1; not shown: His tag
T7 sequence (looked up): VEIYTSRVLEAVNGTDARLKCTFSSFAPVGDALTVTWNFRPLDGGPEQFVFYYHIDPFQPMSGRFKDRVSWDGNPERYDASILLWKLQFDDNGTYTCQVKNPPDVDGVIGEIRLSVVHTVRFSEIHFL

[2] = biological target: T8, JAMA on CHO cells (CHO-JAMA transfectants) (UniProt Q9Y624 28-299, limits assumed); assay: staining of CHO-JAMA transfectants
T8 construct: whole, on cells; Construct not described
T8 sequence (looked up): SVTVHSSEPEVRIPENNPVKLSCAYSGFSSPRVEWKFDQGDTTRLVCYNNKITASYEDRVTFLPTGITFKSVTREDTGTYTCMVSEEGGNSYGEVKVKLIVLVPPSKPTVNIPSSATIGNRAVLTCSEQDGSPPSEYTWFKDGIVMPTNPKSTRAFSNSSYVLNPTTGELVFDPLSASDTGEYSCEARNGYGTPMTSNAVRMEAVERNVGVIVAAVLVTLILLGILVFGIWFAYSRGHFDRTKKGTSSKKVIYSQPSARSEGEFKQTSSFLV

T6 sequence (P78324 31-370 limits assumed): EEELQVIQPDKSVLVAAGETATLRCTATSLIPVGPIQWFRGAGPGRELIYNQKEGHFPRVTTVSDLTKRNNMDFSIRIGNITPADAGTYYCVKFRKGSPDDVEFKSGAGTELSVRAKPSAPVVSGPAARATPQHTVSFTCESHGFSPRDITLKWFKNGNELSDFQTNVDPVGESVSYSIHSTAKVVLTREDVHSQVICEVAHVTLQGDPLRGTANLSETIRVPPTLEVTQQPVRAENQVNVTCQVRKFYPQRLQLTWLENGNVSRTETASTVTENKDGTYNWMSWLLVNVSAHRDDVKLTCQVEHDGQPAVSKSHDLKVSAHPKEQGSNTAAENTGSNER
Sequence of BSA (P02769 25-607 limits assumed): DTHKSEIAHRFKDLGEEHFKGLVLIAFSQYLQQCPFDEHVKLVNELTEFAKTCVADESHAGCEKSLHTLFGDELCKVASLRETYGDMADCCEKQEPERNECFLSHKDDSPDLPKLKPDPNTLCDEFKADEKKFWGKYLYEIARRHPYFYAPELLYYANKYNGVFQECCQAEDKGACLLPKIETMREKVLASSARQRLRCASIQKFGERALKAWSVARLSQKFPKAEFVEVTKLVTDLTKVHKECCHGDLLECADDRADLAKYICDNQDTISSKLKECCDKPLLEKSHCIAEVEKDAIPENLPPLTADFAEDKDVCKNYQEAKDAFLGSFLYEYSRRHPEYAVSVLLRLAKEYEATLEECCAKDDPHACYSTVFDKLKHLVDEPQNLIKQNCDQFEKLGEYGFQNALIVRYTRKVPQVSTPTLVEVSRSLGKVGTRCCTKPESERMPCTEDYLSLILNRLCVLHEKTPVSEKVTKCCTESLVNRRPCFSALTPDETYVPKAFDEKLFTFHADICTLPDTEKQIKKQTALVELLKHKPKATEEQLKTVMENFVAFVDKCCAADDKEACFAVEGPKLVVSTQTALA

binding result (BSA): no binding (tested: antibody 10 µg/ml)
binding result (JAMA-GST): no binding (tested: antibody 10 µg/ml)
binding result [1]: no binding (tested: antibody 10 µg/ml)
binding result (JAMA-Fc): no binding (tested: antibody 10 µg/ml)
binding result (JAMC_Fc): no binding (tested: antibody 10 µg/ml)
binding result (CLMP-Fc): no binding (tested: antibody 10 µg/ml)
binding result (SIRPA-HIS): no binding (tested: antibody 10 µg/ml)
binding result (EVA-His): no binding (tested: antibody 10 µg/ml)
binding result [2]: no binding
B1: DW216 (antibody, IgG1, V domains shown)
VH: DVQLVESGPGLVKPSQSLSLTCTVTGYSITSDYAWNWIRQFPGNKLEWMGYISSSGNSNYNPSLKSRISITRDTSKNQFFLQLNSVTTEDTATYYCAGATGYSMDYWGQGTTLTVK
VL: VLTQSPAIMSASLGERVTMTCTASSSVSSSYLHWYQQKPGSSPKLWIYSTSNLASGVPARFSGSGSGTSYSLTISSMEAEDAATYYCHQYHRSPFTFGSGTKLELK
notes: also called DW216 mAb; H3L3

binding result (BSA): no binding (tested: antibody 10 µg/ml)
binding result (JAMA-GST): no binding (tested: antibody 10 µg/ml)
binding result [1]: no binding (tested: antibody 10 µg/ml)
binding result (JAMA-Fc): no binding (tested: antibody 10 µg/ml)
binding result (JAMC_Fc): no binding (tested: antibody 10 µg/ml)
binding result (CLMP-Fc): no binding (tested: antibody 10 µg/ml)
binding result (SIRPA-HIS): no binding (tested: antibody 10 µg/ml)
binding result (EVA-His): no binding (tested: antibody 10 µg/ml)
binding result [2]: no binding
B2: DW100 (antibody, IgG1, V domains shown)
VH: DVQLVESGAELVRPGASVKLSCKALAYTFTDYEMHWVKQTPVHGLEWIGIIHPGSGGTVYNQKFKGKATLTADKSSSTAYMELSSLTSEDSTVYYCTRRRYYGSSYWYFDVWGAGN
VL: VLTQSPASLAASVGETVTITCRASENIYYSLAWYQQKQGKSPQLLIYNANSLEDGVPSRFSGSGSGTQYSLKINSMQPEDTATYFCEQTYDVPLTFGAGTKLEL
notes: also called DW100 mAb; anti-JAML monoclonal antibody DW100
